Data published in US20240043529A1, “METHODS AND COMPOSITIONS RELATED TO BCL2 AND BIM HETERODIMER ANTIBODIES” (Eutropics Pharmaceuticals, Inc., priority 2020, published 2024).
Numbering of substitutions follows the chain as printed. Each block holds one molecule with its values, some of them ahead of it.

Experiments:
GST_Bc12 (Bc12 monomer) = molecular target: T1, GST_Bc12 (Bc12 monomer) (human, UniProt P10415 1-218, limits assumed); test: ELISA, serially diluted hybridoma supernatant on glutathione plates
T1 construct: also called Bcl2 monomer; not shown: GST (glutathione S-transferase) fused at the N-terminus
T1 sequence (P10415 1-218 limits assumed): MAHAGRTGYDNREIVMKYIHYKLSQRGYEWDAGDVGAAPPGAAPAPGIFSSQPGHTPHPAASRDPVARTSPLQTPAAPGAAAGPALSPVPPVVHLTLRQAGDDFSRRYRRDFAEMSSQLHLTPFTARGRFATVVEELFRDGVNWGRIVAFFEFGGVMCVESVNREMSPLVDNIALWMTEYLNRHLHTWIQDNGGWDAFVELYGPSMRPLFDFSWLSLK
Protocol: (§1) This class of heterodimer specific Bc12:Bim reactive monoclonal antibodies are otherwise known as “HSB2B”. […] As controls, reactivity with Bc1xL:Bim, Bc12 and Bc1xL monomers, and bovine serum albumin (BSA) were also screened against. To adhere the Bc1xL and Bc12 to the plates, each was expressed as a recombinant fusion protein with GST at the N-terminus (i.e. GST_Bc12 and GST_Bc1xL). Once adhered to the plate, incubations were either performed with a Bim peptide (which fits into the BH3-binding pocket of Bc12 family members), or PBS (thus retaining the monomeric confirmation). Hybridomas supernatants were subsequently incubated with the coated antigens and detected with HRP conjugated anti-mouse IgG. The reaction was developed with TMB substrate and stopped with sulphuric acid. Gluathione plate wells were scanned using a wavelength filter with an optical density of 450 nanometres (OD₄₅₀).

[1] = molecular target: T2, GST_Bc1xL (Bc1xL monomer) (human, UniProt Q07817 1-209); test: as above
T2 construct: also called BclxL monomer; not shown: GST (glutathione S-transferase) fused at the N-terminus
T2 sequence (Q07817 1-209): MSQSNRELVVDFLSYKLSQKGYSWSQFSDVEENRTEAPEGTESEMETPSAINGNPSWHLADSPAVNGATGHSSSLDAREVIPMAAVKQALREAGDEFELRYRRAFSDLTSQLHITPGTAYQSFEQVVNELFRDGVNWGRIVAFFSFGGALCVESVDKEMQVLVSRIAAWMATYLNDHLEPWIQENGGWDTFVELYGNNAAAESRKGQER
Protocol: as §1

[2] = molecular target: T3, bovine serum albumin (BSA) (bovine, UniProt P02769 25-607); test: as above
T3 construct: Control antigen
T3 sequence (P02769 25-607 limits assumed): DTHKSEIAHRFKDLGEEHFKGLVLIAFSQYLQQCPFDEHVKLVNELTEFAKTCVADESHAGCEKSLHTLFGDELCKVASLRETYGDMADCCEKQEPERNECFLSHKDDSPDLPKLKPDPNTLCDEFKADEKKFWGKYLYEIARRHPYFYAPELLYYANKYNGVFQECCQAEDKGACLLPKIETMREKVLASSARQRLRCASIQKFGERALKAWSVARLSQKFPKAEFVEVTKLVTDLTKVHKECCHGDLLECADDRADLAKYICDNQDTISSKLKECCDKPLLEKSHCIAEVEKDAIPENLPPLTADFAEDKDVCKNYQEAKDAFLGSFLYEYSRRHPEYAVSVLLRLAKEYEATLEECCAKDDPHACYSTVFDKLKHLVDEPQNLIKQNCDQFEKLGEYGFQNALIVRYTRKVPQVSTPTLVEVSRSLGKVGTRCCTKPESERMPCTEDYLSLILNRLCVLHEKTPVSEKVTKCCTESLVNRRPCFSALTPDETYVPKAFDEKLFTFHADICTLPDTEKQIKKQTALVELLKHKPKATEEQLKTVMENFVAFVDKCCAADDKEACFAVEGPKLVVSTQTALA
Protocol: as §1

[3] = molecular target: Bc12:Bim heterodimeric complex (Homo sapiens, UniProt P10415); test: ELISA of hybridoma supernatants on glutathione plates coated with GST_Bc12 complexed with Bim peptide; assay type: binding; conditions: for antigen reactivity of hybridoma supernatants (OD450): FIG. 1, serially diluted supernatants, controls Bc1xL:Bim, Bc12 and Bc1xL monomers, BSA; for hybridoma supernatant reactivity among a more exhaustive range of antigens: FIG. 2, antigens include Mcl1 monomer and Mc11:Bim heterodimeric forms
Sequence of Bc12:Bim heterodimeric complex (P10415 whole entry, the tested form may be a part): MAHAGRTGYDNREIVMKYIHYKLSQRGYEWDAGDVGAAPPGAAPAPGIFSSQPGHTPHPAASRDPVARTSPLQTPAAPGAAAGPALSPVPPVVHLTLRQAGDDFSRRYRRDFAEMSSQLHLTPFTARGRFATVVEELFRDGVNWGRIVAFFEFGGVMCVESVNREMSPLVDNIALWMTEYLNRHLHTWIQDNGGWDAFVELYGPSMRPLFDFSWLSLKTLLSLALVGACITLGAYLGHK
Sequence of Bc12:Bim heterodimeric complex (O43521 142-161 partner limits assumed): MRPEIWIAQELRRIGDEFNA
Protocol: This class of heterodimer specific Bc12:Bim reactive monoclonal antibodies are otherwise known as “HSB2B”. […] As controls, reactivity with Bc1xL:Bim, Bc12 and Bc1xL monomers, and bovine serum albumin (BSA) were also screened against. To adhere the Bc1xL and Bc12 to the plates, each was expressed as a recombinant fusion protein with GST at the N-terminus (i.e. GST_Bc12 and GST_Bc1xL). Once adhered to the plate, incubations were either performed with a Bim peptide (which fits into the BH3-binding pocket of Bc12 family members), or PBS (thus retaining the monomeric confirmation). Hybridomas supernatants were subsequently incubated with the coated antigens and detected with HRP conjugated anti-mouse IgG. The reaction was developed with TMB substrate and stopped with sulphuric acid. Gluathione plate wells were scanned using a wavelength filter with an optical density of 450 nanometres (OD450).
As a GST fusion protein (GST_Mc11), HSB2B hybridoma supernatant reactivity was tested against the Mc11 monomeric form, or the heterodimeric forms (created by, either, incubation of Bim peptide (as for FIG. 1), or by covalently linking the Bim peptide to the GST_Mc11). As for FIG. 1, the HSB2B mAbs show specific reactivity with the epitopes induced following the complexing of Bc12 with Bim.

[4] = tested on: small cell lung cancer tissue; test: IHC on FFPE small cell lung cancer tissue; conditions: for cytoplasmic staining level (Mean Cytoplasmic OD) of tumor cells versus negative control: FIG. 4 (ii), four biopsy areas; for cytoplasmic staining level (Mean Cytoplasmic OD) of tumor cells versus negative control / cytoplasmic staining level of individual cells versus negative control: Mann Whitney ****p<0.001; for reactivity by IHC with small cell lung cancer tissue: FIG. 4, FFPE secondary (colon) tumor biopsy, anti-mouse IgG HRP, DAB; for cytoplasmic staining level of individual cells versus negative control: FIG. 5 (ii), three biopsy areas combined
Source text: Serial sections of a FFPE secondary (colon) tumor biopsy were stained with the HSB2B clones or, as a negative control, no primary antibody (“neg control”). Antibody binding was detected with anti-mouse IgG HRP and developed using a DAB substrate to yield a brown stain. Nuclei were counterstained blue with Hematoxylin. Four corresponding biopsy areas (A-D) were imaged per biopsy for analysis. FIG. 4 (i) is a panel of images showing the magnitude of staining with each HSB2B mAb for one of the four biopsy areas acquired for each stained biopsy. […] Cellular architecture (middle row) was then defined using HALO image analysis software (left hand color key, TIL=tumor infiltrating lymphocytes), most importantly to define the location of the tumor cells. […] (ii) Dot plot/bar chart showing the cytoplasmic staining levels (Mean Cytoplasmic OD) for each of the tumor cells for the four different biopsy areas. The dots represent cytoplasmic staining intensities for individual cells. Medians and interquartile ranges are plotted. (Mann Whitney) statistical comparisons of staining intensity were performed between cells from HSB2B stained tissue and negative (neg) control tissue for each of the four areas of biopsy. ****p<0.001.
The present anti-BC12/BIM antibodies are labelled “HSB2B” and a clone number (see Table A); “HSBXB” is an antibody against Bc1-x1/Bim and “HSMCB” is an antibody against MCL-1/BIM. […] FIG. 5 (ii) is cytoplasmic staining levels of individual cells from three different biopsy areas were combined and plotted as dot/bar graphs. The dots represent cytoplasmic staining intensities for individual cells. Medians and interquartile ranges are plotted. (Mann Whitney) statistical comparisons of staining intensity were performed between cells from HSA stained tissue and negative (neg) control tissue. **** p<0.001. […] The acquisition of data following staining with different HSA classes is planned to be of clinical utility to determine the relative dependencies of different cancers on different Bc12 family members.

breast cancer tissue = test: IHC on FFPE breast cancer tissue; conditions: FIG. 6; biopsies of two breast cancer patients; three biopsy areas combined
Source text: The present anti-BC12/BINI antibodies are labelled “HSB2B” and a clone number (see Table A); “HSBXB” is an antibody against Bc1-x1/Bim and “HSMCB” is an antibody against MCL-1/BIM. Using an analogous staining method to that described in FIG. 5, serial sections of two different patients' breast cancer biopsies (“Breast Cancer Patient 1 & 2”) were stained at the same time, under the identical conditions for relative reactivity with HSB2B mAbs 2H3 and 10C10, HSMCB and HSBXB. Cytoplasmic staining levels of individual cells from three different biopsy areas for each patient biopsy were combined and plotted as dot/bar graphs. […] The acquisition of data following staining with different HSA classes is planned to be of clinical utility to determine the relative dependencies of different cancers on different Bc12 family members.

Bc12:BAX heterodimers = Bc12:BAX heterodimers (Homo sapiens, UniProt P10415); test: ELISA reactivity with different Bc12 and Bc1_XL heterodimers; assay type: binding; conditions: FIG. 8; signal relative to Bc12:BIM heterodimer
Sequence of Bc12:BAX heterodimers (P10415 whole entry): as the sequence (P10415 whole entry, the tested form may be a part) above
Sequence of Bc12:BAX heterodimers (Q07812 whole entry partner): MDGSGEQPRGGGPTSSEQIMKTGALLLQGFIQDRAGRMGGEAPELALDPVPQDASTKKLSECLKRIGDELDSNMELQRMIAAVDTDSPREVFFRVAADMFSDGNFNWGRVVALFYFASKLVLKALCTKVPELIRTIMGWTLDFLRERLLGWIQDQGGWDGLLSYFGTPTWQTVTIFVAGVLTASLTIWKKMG
Source text: (§2) All levels of reactivity are tabulated as percentage magnitudes of signal relative to those yielded with the Bc12:BIM heterodimer. […] 28A9 has low ABT199 cross-reactivity.

Bc12:BIM heterodimer = Bc12:BIM heterodimer (Homo sapiens, UniProt P10415); test: as above; assay type: binding; conditions: FIG. 8
Sequence of Bc12:BIM heterodimer (P10415 whole entry): as the sequence (P10415 whole entry, the tested form may be a part) above
Sequence of Bc12:BIM heterodimer (O43521 whole entry partner): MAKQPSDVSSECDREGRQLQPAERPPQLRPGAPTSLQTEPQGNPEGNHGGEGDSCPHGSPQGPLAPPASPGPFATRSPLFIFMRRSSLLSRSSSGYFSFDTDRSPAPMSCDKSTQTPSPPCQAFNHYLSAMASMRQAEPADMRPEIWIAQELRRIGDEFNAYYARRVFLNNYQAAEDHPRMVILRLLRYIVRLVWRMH
Source text: as §2

[5] = molecular target: ABT199 in a heterodimer with Bc12 (Homo sapiens, UniProt P10415); test: as above; assay type: binding; conditions: FIG. 8; signal relative to Bc12:BIM heterodimer
Sequence of ABT199 in a heterodimer with Bc12 (P10415 whole entry, one chain of several): as the sequence (P10415 whole entry, the tested form may be a part) above
Source text: as §2

binding result (GST_Bc12 (Bc12 monomer)): no binding
binding result [1]: no binding
binding result [2]: no binding
B4: HSB2B clone 2H3G7 (antibody, V domains shown)
VH: QVQLQQPGAELVKPGTSVKLSCQASGYTFASYWMHWVKQRPGRGLEWIGRIDPNSGGTKYNEKFKSKVTLTVDKPSSAAYMQLSSLTSEDSAVYYCARWWDYDYFDYWGQGTTLTVSS
VL: DIVMTQSPSSLTVTAGEKVTMSCKSSQSLLNSGNQKRYLTWYQQKPGQPPKLLIYWASTRESGVPDRFTGSGSGTDFTLTISSVQAEDLAVYYCQNDYNYPLTFGSGTKLELK
notes: Mouse IgG, tested as hybridoma supernatant; also called HSB2B mAb 2H3

binding result [1]: no binding
binding result [2]: no binding
B5: HSB2B clone 28A9D11 (antibody, V domains shown)
VH: DVQLQESGPGLVKPSQSLSLTCSVTGYSITSGYYWNWIRQFPGNKLEWMGYISYDGSNNYNPSLKNRISITRDTSKNQFFLKLNSVTTEDTATYYCARDGTTVVATLAYWGQGTLVTVSA
VL: QIVLTQSPAIMSASPGEKVTISCSASSSVSYMYWYQQKPGSSPKPWIYRTSNLASGVPARFSGSGSGTSYSLTISSMEAEDAATYYCQQYHSYPPTFGAGTKLELK
notes: Mouse IgG, tested as hybridoma supernatant

More lines, now with the values behind:

B1: HSB2B clone 10C10F7 (antibody, V domains shown)
VH: B4 VH with T16A, Q23K, A30T, Y60S, K65N, S66N, V68A, P75S, A78T
VL: B4 VL with R37N, S83N, S106A
notes: Mouse IgG, tested as hybridoma supernatant; also called HSB2B mAb 10C10
binding result (GST_Bc12 (Bc12 monomer)): no binding
binding result [1]: no binding
binding result [2]: no binding

B2: 10C10: mouse IgG monoclonal antibody specific for the Bc12:Bim heterodimer; Hv SEQ ID NO: 1, Lv SEQ ID NO: 5 (antibody, V domains shown)
VH: B4 VH with T16A, Q23K, A30T, Y60S, K65N, S66N, V68A, P75S, A78T
VL: B4 VL with R37N, S83N, S106A
antigen reactivity of hybridoma supernatants (OD450) [3]: specific for the Bc12:Bim heterodimeric complex
hybridoma supernatant reactivity among a more exhaustive range of antigens [3]: specific reactivity for the Bc12:Bim complex
cytoplasmic staining level (Mean Cytoplasmic OD) of tumor cells versus negative control [4]: higher level of cytoplasmic stain
reactivity by IHC with small cell lung cancer tissue [4]: can react with small cell lung cancer tissue
cytoplasmic staining level of individual cells versus negative control [4]: higher level of staining
cytoplasmic staining level of individual cells versus negative control (breast cancer tissue): higher level of staining
cross-reactivity with Bc12:BAX heterodimer (Bc12:BAX heterodimers): cross-reactivity between Bc12:BIM and Bc12:BAX heterodimers

B3: 2H3: mouse IgG monoclonal antibody specific for the Bc12:Bim heterodimer; Hv SEQ ID NO: 25, Lv SEQ ID NO: 29 (antibody, V domains shown)
VH: B4 VH
VL: B4 VL
antigen reactivity of hybridoma supernatants (OD450) [3]: specific for the Bc12:Bim heterodimeric complex
hybridoma supernatant reactivity among a more exhaustive range of antigens [3]: specific reactivity for the Bc12:Bim complex
cytoplasmic staining level (Mean Cytoplasmic OD) of tumor cells versus negative control [4]: higher level of cytoplasmic stain
reactivity by IHC with small cell lung cancer tissue [4]: can react with small cell lung cancer tissue
cytoplasmic staining level of individual cells versus negative control [4]: higher level of staining
cytoplasmic staining level of individual cells versus negative control (breast cancer tissue): higher level of staining
cross-reactivity with Bc12:BAX heterodimer (Bc12:BAX heterodimers): cross-reactivity between Bc12:BIM and Bc12:BAX heterodimers

B6: 28A9: mouse IgG monoclonal antibody specific for the Bc12:Bim heterodimer; Hv SEQ ID NO: 17, Lv SEQ ID NO: 21 (antibody, V domains shown)
VH: B5 VH
VL: B5 VL
antigen reactivity of hybridoma supernatants (OD450) [3]: specific for the Bc12:Bim heterodimeric complex
physiological heterodimer reactivity (selectivity) (Bc12:BIM heterodimer): restricted to Bc12:BIM
ABT199 cross-reactivity [5]: low
